{
  "source": "patent US7598343B1",
  "about": "“Pharmaceutical formulations of bivalirudin and processes of making the same” (The Medicines Company, priority 2008, dated 2009)",
  "format_in_all_cases": "physicochemical",
  "key": {"[1]": {"experiment": "Asp^9-bivalirudin level by HPLC after adding pH-adjusting solution in two portions of 75% and 25% at 400 rpm (Example 2)", "method": "The bivalirudin solution (˜760 mL) comprised bivalirudin at a concentration of 0.050 mg/ml dissolved in a 2.64% w/w mannitol solution. The pH-adjusting solution (233 mL) comprised 0.5 N sodium hydroxide in a 2.64% w/w mannitol solution. The experiment was conducted at a temperature of about 8° C.\nThe pH-adjusting solution was divided into a 75% portion and a 25% portion of the total pH-adjusting solution volume. First, the pH and Asp^9-bivalirudin levels were measured before addition of the pH-adjusting solution (baseline). During addition of the 75% portion, at about 400 rpm, the pH was monitored during mixing until the pH achieved a constant level at which time the Asp^9-bivalirudin level was also measured (measurement #1). A portion of this material was allowed to sit for about 6.5 hours and the amount of Asp^9-bivalirudin was again measured (measurement #2). The 25% portion of the pH-adjusting solution was added about 30 minutes after the last base addition and mixing was continued at 400 rpm. The pH was initially recorded and then both the pH and Asp^9-bivalirudin levels were measured after about 30 minutes of mixing (measurement #3). The pH and Asp^9-bivalirudin levels were again recorded after mixing at 400 rpm overnight (measurement #4)."}, "[2]": {"experiment": "Asp^9-bivalirudin level by HPLC after constant-rate addition of pH-adjusting solution under high shear mixing (Example 3)", "method": "The bivalirudin solution (675 mL) comprised 64.4 g dissolved in 2.64% w/w mannitol solution. The bivalirudin solution was divided in half for evaluation of adding the pH-adjusting solution at two different mixing rates. The bivalirudin solution was placed in a vessel with a high shear mixer.\nThe pH-adjusting solution (131.2 mL) comprised 0.5 N sodium hydroxide in a 2.64% w/w mannitol solution. The pH-adjusting solution was loaded into a burette, which was connected on the bottom to a tube with a hose. The tube was positioned at the base of the high shear mixer blade inside the mixing vessel containing the bivalirudin solution. A clamp was used to restrict the pH-adjusting solution from passing through the hose.\nThe speed of the high shear mixer (Silverson Laboratory Emulsifier Model L4RT) was set to either 1500 rpm or 3000 rpm. The clamp on the hose was removed and the pH-adjusting solution was then added to the bivalirudin solution at a controlled, constant rate of approximately 2 L/min.\nThe volume of the compounding solution was then adjusted to a final volume of 562.5 mL.\nFor the compounding solution mixed at 1500 rpm, after the pH-adjusting solution was added, the mixing speed was increased to approximately 4500 rpm for a short period of time to allow faster and complete dissolution, and then reduced to 1500 rpm until the solution was completely dissolved. After complete dissolution, the resulting compounding solution was moved from the vessel to a beaker which contained a stir bar. The solution was adjusted to a target pH of 5.3 using 19 mL of the pH-adjusting solution, and then the volume was adjusted to a final volume of 562.5 mL.\nFor both mixing conditions, the pH was monitored throughout the addition of the pH-adjusting solution to the bivalirudin solution to form the compounding solution. The level of Asp^9-bivalirudin was measured by HPLC before (baseline) addition of the pH-adjusting solution, after the addition of the pH-adjusting solution (measurement #2), and after the volume of the compounding solution was adjusted to mark (measurement #3)."}, "[3]": {"experiment": "Asp^9-bivalirudin level by HPLC in compounding solution under high shear mixing (Example 1, third part)", "from_the_text": "In a third part of the study, the final compounding solution from the first part of the study was placed into a recirculation vessel for use in a recirculation water bath (Precision Model 181) to be subjected to high shear mixing using a Silverson Laboratory Emulsifier (Model L4RT). Prior to this study, it was thought that bivalirudin solutions were unstable to both heat and shear, thus requiring extreme care in handling bivalirudin during the compounding process. Before subjecting the compounding solution to high shear mixing, the level of Asp^9-bivalirudin was recorded (measurement #1). The compounding solution was then subjected to high shear mixing at ˜6000 rpm for 30 minutes without use of the recirculation water bath; the temperature of the compounding solution due to the high shear mixing rose to about 36° C. A sample was then measured for Asp^9-bivalirudin level (measurement #2). The mixing speed was then slowed to 5000 rpm for 120 minutes and the temperature was measured at about 33° C., and another sample was analyzed for Asp^9-bivalirudin level (measurement #3)."}, "[4]": {"experiment": "Asp^9-bivalirudin level by HPLC after adding pH-adjusting solution in four equal portions with inefficient mixing (Example 1, first part)", "method": "In a first part of the study, the bivalirudin solution (˜600 mL) comprised bivalirudin at a concentration of ˜0.1 mg/mL in a 2.64% w/w mannitol solution. The pH-adjusting solution (233 mL) comprised 0.5 N sodium hydroxide in a 2.64% w/w mannitol solution. Asp^9-bivalirudin levels were measured throughout the experiment by high-performance liquid chromatography (HPLC). pH was also measured through the experiment. One measurement of Asp^9-bivalirudin was taken immediately after the bivalirudin solution was formed (baseline).\nThe pH-adjusting solution was added to the bivalirudin solution in four equal portions over the total duration of about 1 hour at a temperature of 5-8° C., each addition separated by about 15 minutes. The resulting compounding solution was mixed at between 600 rpm and 700 rpm throughout the addition of the first and second portions of the pH-adjusting solution, and the pH and Asp^9-bivalirudin levels were recorded (measurements #1 and #2). During the addition of the third portion, the mixer was turned off and the pH and Asp^9-bivalirudin levels were recorded (measurement #3A). The mixture was then subjected to high shear mixing at 4000 rpm for 30 seconds and the pH and Asp^9-bivalirudin levels were recorded (measurement #3B). During addition of the fourth portion, the mixer was turned off and the levels of pH and Asp^9-bivaluridin were recorded (measurement #4A). Mixing was then continued for, at least, two minutes at 5300 rpm and the pH was and Asp^9-bilvairudun levels were recorded (measurement #4B). The mixing rate was decreased to about 3600 rpm for 1 hour and the pH and Asp^9-bivalirudin levels were recorded (measurement #5). A portion of the material from measurement #4a was allowed to stand for 7 hours and the pH and Asp^9-bivalirudin levels were recorded (measurement #6)."}, "[5]": {"experiment": "Asp^9-bivalirudin level by HPLC in portions of compounding solution adjusted to pH 8, 9, 10, 12 over time (Example 1, second part)", "method": "In a second part of the study, four portions of the final compounding solution from the first part of the study were removed. The pH levels of these portions were adjusted to 8, 9, 10, and 12, respectively, using additional pH-adjusting solution and high shear mixing on a Silverson Laboratory Emulsifier (Model L4RT).\nSamples of the portion of the compounding solution adjusted to pH 8 were taken immediately, and after about 80 minutes, 300 minutes, and 370 minutes. Samples of the portion of the compounding solution adjusted to pH 9 were taken immediately, after about 80 minutes, and 300 minutes. Further, samples of the portion of the compounding solution adjusted to pH 10 and 12 were taken immediately, after about 80 minutes and 170 minutes."}, "[6]": {"experiment": "Isoelectric point of bivalirudin"}},
  "data": [
    {"substance": "D-Phenylalanyl-L-Prolyl-L-Arginyl-L-Prolyl-Glycyl-Glycyl-Glycyl-Glycyl-L-Asparagyl-Glycyl-L-Aspartyl-L-Phenylalanyl-L-Glutamyl-L-Glutamyl-L-Isoleucyl-L-Prolyl-L-Glutamyl-L-Glutamyl-L-Tyrosyl-L-Leucine trifluoroacetate (salt) hydrate [bivalirudin]", "values": [
      {"measurement": "% Asp^9-bivalirudin", "setting": "[1]; #1: after addition of 75% portion, pH peak at 12.2 then dropped to 8-9", "result": 0.44, "unit": "%"},
      {"measurement": "% Asp^9-bivalirudin", "setting": "[1]; #2: same as #1 but after sitting for 6.5 hours with no stirring", "result": 0.88, "unit": "%"},
      {"measurement": "% Asp^9-bivalirudin", "setting": "[1]; #3: remaining 25% added, pH 12.4 initially then 7.7 after 30 minutes, taken from the bottom", "result": 2.19, "unit": "%"},
      {"measurement": "% Asp^9-bivalirudin", "setting": "[1]; #3: remaining 25% added, pH 12.4 initially then 7.7 after 30 minutes, taken from the top", "result": 1.85, "unit": "%"},
      {"measurement": "% Asp^9-bivalirudin", "setting": "[1]; #4: same as #3 but after mixing overnight, pH 5.0", "result": 1.57, "unit": "%"},
      {"measurement": "% Asp^9-bivalirudin", "setting": "[1]; Baseline: after bivalirudin solution was formed, pH 1.71", "result": 0.42, "unit": "%"},
      {"measurement": "% Asp^9-bivalirudin", "setting": "[2]; 1500 rpm, #1 after addition of pH-adjusting solution, pH ~6.0", "result": 0.31, "unit": "%"},
      {"measurement": "% Asp^9-bivalirudin", "setting": "[2]; 1500 rpm, #2 after compounding solution was adjusted to mark, pH 5.3", "result": 0.34, "unit": "%"},
      {"measurement": "% Asp^9-bivalirudin", "setting": "[2]; 1500 rpm, Baseline before addition of pH-adjusting solution, pH ~2.5", "result": 0.38, "unit": "%"},
      {"measurement": "% Asp^9-bivalirudin", "setting": "[2]; 3000 rpm, #1 after addition of pH-adjusting solution, pH ~5.6", "result": 0.41, "unit": "%"},
      {"measurement": "% Asp^9-bivalirudin", "setting": "[2]; 3000 rpm, #2 after compounding solution was adjusted to mark, pH 5.25", "result": 0.40, "unit": "%"},
      {"measurement": "% Asp^9-bivalirudin", "setting": "[2]; 3000 rpm, Baseline before addition of pH-adjusting solution, pH ~2.5", "result": 0.43, "unit": "%"},
      {"measurement": "degradation by high shear mixing", "setting": "[2]; high shear mixing even up to 4500 rpm", "result": "not susceptible to degradation"},
      {"measurement": "% Asp^9-bivalirudin", "setting": "[3]; #1: before high shear mixing, RT ~20° C.", "result": 0.71, "unit": "%"},
      {"measurement": "% Asp^9-bivalirudin", "setting": "[3]; #2: after high shear mixing at 6000 rpm for 30 minutes, 36° C.", "result": 0.71, "unit": "%"},
      {"measurement": "% Asp^9-bivalirudin", "setting": "[3]; #3: after mixing rate was reduced to 5000 rpm for 120 minutes, 33° C.", "result": 0.75, "unit": "%"},
      {"measurement": "stability to high shear mixing conditions", "setting": "[3]; high shear mixing 6000/5000 rpm", "result": "stable"},
      {"measurement": "% Asp^9-bivalirudin", "setting": "[4]; #2: after addition of second portion of pH-adjusting solution, pH 4.2", "result": 0.43, "unit": "%"},
      {"measurement": "% Asp^9-bivalirudin", "setting": "[4]; #3A: after addition of third portion with no mixing, pH ~6 to 8", "result": 0.45, "unit": "%"},
      {"measurement": "% Asp^9-bivalirudin", "setting": "[4]; #3B: same as #3A but after mixing (4000 rpm, 30 seconds), pH 5.0", "result": 0.74, "unit": "%"},
      {"measurement": "% Asp^9-bivalirudin", "setting": "[4]; #4A: after fourth portion, sat for 10 minutes with no mixing, pH ~8.5 to 9", "result": 0.60, "unit": "%"},
      {"measurement": "% Asp^9-bivalirudin", "setting": "[4]; #4B: same as #4A but after mixing, pH 6.0 to 6.5", "result": 0.57, "unit": "%"},
      {"measurement": "% Asp^9-bivalirudin", "setting": "[4]; #5: same as #4A but after high speed mixing for 1 hour, pH 5.0", "result": 0.71, "unit": "%"},
      {"measurement": "% Asp^9-bivalirudin", "setting": "[4]; #6: same as #4A but 7 hours later with no mixing, pH ~8.5 to 9", "result": 2.05, "unit": "%"},
      {"measurement": "% Asp^9-bivalirudin", "setting": "[4]; Baseline: after bivalirudin solution was formed, pH ~2.5", "result": "~0.42", "unit": "%"},
      {"measurement": "% Asp^9-bivalirudin", "setting": "[5]; Baseline, pH 5", "result": 0.71, "unit": "%"},
      {"measurement": "% Asp^9-bivalirudin", "setting": "[5]; pH 8, after pH was adjusted", "result": 0.71, "unit": "%"},
      {"measurement": "% Asp^9-bivalirudin", "setting": "[5]; pH 8, after ~80 minutes", "result": 0.77, "unit": "%"},
      {"measurement": "% Asp^9-bivalirudin", "setting": "[5]; pH 8, after ~300 minutes", "result": 1.11, "unit": "%"},
      {"measurement": "% Asp^9-bivalirudin", "setting": "[5]; pH 8, after ~370 minutes", "result": 1.26, "unit": "%"},
      {"measurement": "% Asp^9-bivalirudin", "setting": "[5]; pH 9, after pH was adjusted", "result": 0.84, "unit": "%"},
      {"measurement": "% Asp^9-bivalirudin", "setting": "[5]; pH 9, after ~80 minutes", "result": 1.07, "unit": "%"},
      {"measurement": "% Asp^9-bivalirudin", "setting": "[5]; pH 9, after ~300 minutes", "result": 1.84, "unit": "%"},
      {"measurement": "% Asp^9-bivalirudin", "setting": "[5]; pH 10, after pH was adjusted", "result": 1.24, "unit": "%"},
      {"measurement": "% Asp^9-bivalirudin", "setting": "[5]; pH 10, after ~80 minutes", "result": 2.08, "unit": "%"},
      {"measurement": "% Asp^9-bivalirudin", "setting": "[5]; pH 10, after ~170 minutes", "result": 2.59, "unit": "%"},
      {"measurement": "% Asp^9-bivalirudin", "setting": "[5]; pH 12, after pH was adjusted", "result": 4.71, "unit": "%"},
      {"measurement": "% Asp^9-bivalirudin", "setting": "[5]; pH 12, after ~80 minutes", "result": 8.20, "unit": "%"},
      {"measurement": "% Asp^9-bivalirudin", "setting": "[5]; pH 12, after ~170 minutes", "result": 10.95, "unit": "%"},
      {"measurement": "isoelectric point", "setting": "[6]", "result": "about 3.6"}
    ]}
  ]
}
